In paper PMC8517284 one finds fold reduction of the co-immunoprecipitation in the presence of cRGD and Tetrac data, which are given here for one substance.

The test has as its target FLAG-tagged CysD3 (DIO3, NM_001362, selenocysteine codon replaced with cysteine) (UniProt P55073). Put plainly: co-IP.

A value given as a limit tells only on which side of the number the result lay.

Sequence of Myc-tagged β3 integrin (NM_000212.2) (P05106 27-788): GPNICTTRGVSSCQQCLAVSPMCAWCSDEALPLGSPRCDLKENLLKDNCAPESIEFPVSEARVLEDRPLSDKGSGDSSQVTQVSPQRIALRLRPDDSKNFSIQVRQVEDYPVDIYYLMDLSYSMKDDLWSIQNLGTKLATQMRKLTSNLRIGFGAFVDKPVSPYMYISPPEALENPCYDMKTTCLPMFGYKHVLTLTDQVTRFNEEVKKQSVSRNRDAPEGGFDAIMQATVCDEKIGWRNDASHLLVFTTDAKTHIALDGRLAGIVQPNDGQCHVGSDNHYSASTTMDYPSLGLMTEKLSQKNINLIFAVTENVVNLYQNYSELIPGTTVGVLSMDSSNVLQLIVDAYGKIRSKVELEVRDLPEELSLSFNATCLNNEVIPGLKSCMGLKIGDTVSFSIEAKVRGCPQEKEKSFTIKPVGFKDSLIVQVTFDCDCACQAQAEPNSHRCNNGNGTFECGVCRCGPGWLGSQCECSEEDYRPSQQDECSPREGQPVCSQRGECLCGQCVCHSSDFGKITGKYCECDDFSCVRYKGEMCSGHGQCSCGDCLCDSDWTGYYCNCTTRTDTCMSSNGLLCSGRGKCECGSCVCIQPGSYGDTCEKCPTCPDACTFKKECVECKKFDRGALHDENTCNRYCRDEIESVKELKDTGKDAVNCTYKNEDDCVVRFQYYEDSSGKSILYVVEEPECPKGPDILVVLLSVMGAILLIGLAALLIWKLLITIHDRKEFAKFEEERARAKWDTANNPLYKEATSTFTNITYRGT
Sequence of FLAG-tagged CysD3 (DIO3, NM_001362, selenocysteine codon replaced with cysteine) (P55073 whole entry): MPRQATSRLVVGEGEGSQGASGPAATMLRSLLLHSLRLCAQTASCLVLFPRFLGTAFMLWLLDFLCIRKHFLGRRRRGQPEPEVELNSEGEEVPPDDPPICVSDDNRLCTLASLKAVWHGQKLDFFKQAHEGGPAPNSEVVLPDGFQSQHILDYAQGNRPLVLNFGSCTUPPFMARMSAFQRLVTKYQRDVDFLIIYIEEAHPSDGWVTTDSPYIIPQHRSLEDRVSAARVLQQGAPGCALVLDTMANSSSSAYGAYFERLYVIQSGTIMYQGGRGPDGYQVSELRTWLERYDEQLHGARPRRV

Turning to “Myc-tagged β3 integrin (NM_000212.2) (from UniProt P05106-1 27-788) (receptor)”, the fold reduction of the co-immunoprecipitation in the presence of cRGD and Tetrac was over 2 fold.
